Experiment [1] concerns the target T1, binary FGFR1c-Klotho complex (UniProt O35082+P11362).
T1 construct: The ectodomain of murine Klotho (A35 to K982) was purified from culture media; FLAG (C); made in house; host or cells: E. coli (FGFR1c, FGF23); HEK293 (Klotho ectodomain)
T1 sequence (P11362 142-365): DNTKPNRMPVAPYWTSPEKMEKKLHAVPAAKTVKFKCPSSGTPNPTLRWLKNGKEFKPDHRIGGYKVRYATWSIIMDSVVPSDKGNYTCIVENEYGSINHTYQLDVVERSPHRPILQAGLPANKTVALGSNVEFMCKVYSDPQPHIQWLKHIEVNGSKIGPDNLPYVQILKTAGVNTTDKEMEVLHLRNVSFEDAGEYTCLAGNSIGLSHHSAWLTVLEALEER
T1 sequence (O35082 35-982): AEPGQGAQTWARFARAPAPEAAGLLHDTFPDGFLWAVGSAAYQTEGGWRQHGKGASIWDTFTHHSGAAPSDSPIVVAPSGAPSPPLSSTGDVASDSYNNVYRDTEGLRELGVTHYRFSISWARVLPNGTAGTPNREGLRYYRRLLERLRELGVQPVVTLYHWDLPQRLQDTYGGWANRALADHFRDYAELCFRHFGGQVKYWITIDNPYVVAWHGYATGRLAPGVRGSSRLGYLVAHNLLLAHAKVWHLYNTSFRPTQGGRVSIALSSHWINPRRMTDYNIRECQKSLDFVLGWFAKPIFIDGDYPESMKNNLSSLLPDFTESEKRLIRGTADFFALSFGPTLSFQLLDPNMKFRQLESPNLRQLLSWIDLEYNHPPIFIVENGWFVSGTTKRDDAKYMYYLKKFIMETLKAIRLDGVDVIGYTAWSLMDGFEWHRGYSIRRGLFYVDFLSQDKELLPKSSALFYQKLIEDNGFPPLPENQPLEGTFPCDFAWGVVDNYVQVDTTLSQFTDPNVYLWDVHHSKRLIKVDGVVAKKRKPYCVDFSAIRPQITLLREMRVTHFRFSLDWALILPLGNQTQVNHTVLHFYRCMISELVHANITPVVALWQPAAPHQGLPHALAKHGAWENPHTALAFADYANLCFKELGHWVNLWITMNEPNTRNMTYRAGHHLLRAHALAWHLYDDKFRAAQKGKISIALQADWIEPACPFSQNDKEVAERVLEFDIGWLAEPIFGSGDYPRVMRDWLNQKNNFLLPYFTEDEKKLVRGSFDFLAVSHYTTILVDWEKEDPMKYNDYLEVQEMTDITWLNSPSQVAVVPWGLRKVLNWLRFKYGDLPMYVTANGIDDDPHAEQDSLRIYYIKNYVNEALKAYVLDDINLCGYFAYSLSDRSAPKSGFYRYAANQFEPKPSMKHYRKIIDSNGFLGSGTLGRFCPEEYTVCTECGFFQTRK
Put plainly: SPR competition: FGFR1c-Klotho binding to immobilized FGF23^28-251. Also on record: species or system human FGFR1c, murine Klotho. The conditions noted are these: FGF21^168-209 at molar ratios of 6:1 and 10:1. Here is the method:
A variety of interaction or binding assays can be used to determine that an agent specifically binds the binary FGFR-Klotho complex, such as the SPR interaction analysis described below. One aspect of the present invention utilizes SPR analysis of FGF23 protein/peptide binding to the binary FGFR-Klotho complex. The SPR analysis involved FGF23 protein/peptide immobilization by amine coupling on flow channels of a chip. Proteins were injected over the chip at a flow rate of 50 μl min^−1, and at the end of each protein injection (180 s), HBS-EP buffer (10 mM HEPES-NaOH, pH 7.4, 150 mM NaCl, 3 mM EDTA, 0.005% (v/v) polysorbate 20; 50 μl min^−1) was flowed over the chip to monitor dissociation for 180 s. The chip surface was then regenerated by injecting 50 μl of 2.0 M NaCl in 10 mM sodium acetate, pH 4.5. […] For each protein injection over a FGF23 protein/peptide chip, the nonspecific responses from the FHF1B control flow channel were subtracted from the responses recorded for the flow channel onto which FGF23 protein/peptide was immobilized. To analyze FGF23 binding to the binary FGFR1c-Klotho complex, FGF23^28-251 was coupled to a chip, and increasing concentrations of 1:1 complex of the ectodomains of FGFR1c and Klotho in HBS-EP buffer were passed over the chip. To measure binding of the C-terminal tail of FGF23 to the binary FGFR1c-Klotho complex, FGF23^180-251 was immobilized on a chip, and increasing concentrations of 1:1 complex of the ectodomains of FGFR1c and Klotho in HBS-EP buffer were passed over the chip. To examine whether the C-terminal tail of FGF23 can compete with full-length FGF23 for binding to the binary FGFR1c-Klotho complex, FGF23^28-251 was immobilized on a chip. Increasing concentrations of FGF23^180-251 were mixed with a fixed concentration of 1:1 complex of the ectodomains of FGFR1c and Klotho in HBS-EP buffer, and the mixtures were passed over the chip. As a control, competition of FGF23 in solution with immobilized FGF23 for binding to the binary FGFR1c-Klotho complex was studied. Increasing concentrations of FGF23^28-251 were mixed with a fixed concentration of 1:1 complex of the ectodomains of FGFR1c and Klotho in HBS-EP buffer, and the mixtures were passed over the FGF23 chip. Competition of the FGF23 C-terminal tail peptide with full-length FGF23 for binding to the binary FGFR1c-Klotho complex was also studied using the “reverse” SPR assay format, where FGF23^180-251 was immobilized on a chip and mixtures of a fixed concentration of 1:1 complex of the ectodomains of FGFR1c and Klotho with increasing concentrations of FGF23^28-251 were passed over the chip. As a control, competition of FGF23 C-terminal tail peptide in solution with immobilized FGF23 C-terminal tail peptide for binding to the binary FGFR1c-Klotho complex was analyzed. Increasing concentrations of FGF23^180-251 were mixed with a fixed concentration of 1:1 complex of the ectodomains of FGFR1c and Klotho in HBS-EP buffer, and the mixtures were passed over the FGF23^180-251 chip. To verify the specificity of the interaction between the FGF23 C-terminal tail and the FGFR1c-Klotho complex, FGF23^28-251 was immobilized on a chip. Increasing concentrations of FGF21^168-209 were mixed with a fixed concentration of 1:1 complex of the ectodomains of FGFR1c and Klotho in HBS-EP buffer, and the mixtures were passed over the chip. In addition, the ability of the FGF23 C-terminal tail peptide to interfere with binary complex formation between βKlotho and either FGF19 or FGF21 was tested, as was its ability to interfere with ternary complex formation between βKlotho, FGFR, and either FGF19 or FGF21. FGF19^23-216 and FGF21^29-209 were immobilized on two flow channels of a chip. FGF23^180-251 and the ectodomain of βKlotho were mixed at a molar ratio of 2:1, and the mixture was injected over the chip. Next, FGF23^180-251 and the 1:1 complex of the ectodomains of FGFR1c and βKlotho were mixed at a molar ratio of 10:1, and the mixture was passed over the FGF19/FGF21 chip. […]

In the next experiment the target is T2, FGFR1c (Homo sapiens, UniProt P11362).
T2 construct: made in house; host or cells: E. coli
T2 sequence (P11362 142-365): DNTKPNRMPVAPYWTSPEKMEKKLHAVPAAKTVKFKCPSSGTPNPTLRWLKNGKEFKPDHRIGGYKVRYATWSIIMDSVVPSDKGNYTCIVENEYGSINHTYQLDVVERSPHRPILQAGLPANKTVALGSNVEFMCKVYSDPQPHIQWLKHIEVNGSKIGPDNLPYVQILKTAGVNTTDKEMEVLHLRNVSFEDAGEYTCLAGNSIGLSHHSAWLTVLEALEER
Description: SPR: FGFR1c ectodomain passed over immobilized Klotho ectodomain. The note with it: 25° C., HBS-EP buffer, read-out: dissociation constant (KD) of the FGFR1c-Klotho interaction. The experiment is classed as binding. Here is the method: Surface plasmon resonance (SPR) spectroscopy experiments were performed on a Biacore 2000 instrument (Biacore AB), and FGF23-FGFR1c-Klotho interactions were studied at 25° C. in HBS-EP buffer (10 mM HEPES-NaOH, pH 7.4, 150 mM NaCl, 3 mM EDTA, 0.005% (v/v) polysorbate 20). Proteins were immobilized by amine coupling on flow channels of research grade CM5 chips (Biacore AB). Proteins were injected over a CM5 chip at a flow rate of 50 μl min^−1, and at the end of each protein injection (180 s), HBS-EP buffer (50 μl min^−1) was flowed over the chip to monitor dissociation for 180 s. The chip surface was then regenerated by injecting 50 μl of 2.0 M NaCl in 10 mM sodium acetate, pH 4.5. […] For each protein injection over a Klotho chip, the nonspecific responses from the β-glucuronidase control flow channel were subtracted from the responses recorded for the Klotho flow channel. Similarly, for each protein injection over a FGF chip, the nonspecific responses from the FHF1B control flow channel were subtracted from the responses recorded for the FGF flow channel. […]
To analyze Klotho binding to FGFR1c, Klotho ectodomain was immobilized on a chip (˜29-35 fmole/mm^2 of flow channel). […] Maximal equilibrium responses were plotted against the concentrations of FGFR1c ectodomain (FIG. 1B), and from the fitted saturation binding curve the equilibrium dissociation constant (KD) was calculated. […]
(In general: In SPR one partner is held on a chip, and binding of the other changes the refractive index at the surface.)

Entries after “also recorded” stand apart in the source; their conditions may differ.

For the molecule “FGF21^168-209: 42-amino acid long C-terminal tail of FGF21 (P168 to S209), expressed in E. coli (PGLPPALPEPPGILAPQPPDVGSSDPLSMVGPSQGRSPSYAS; left off: small tags and cut ends) [reference compound]”, the “inhibition of FGFR1c-Klotho binding to immobilized FGF23^28-251” value in experiment [1] is reported as “failed to inhibit; also recorded: no inhibition”.

B1: Klotho: ectodomain of murine Klotho (A35 to K982) purified from HEK293 culture media (protein)
chain: AEPGQGAQTWARFARAPAPEAAGLLHDTFPDGFLWAVGSAAYQTEGGWRQHGKGASIWDTFTHHSGAAPSDSPIVVAPSGAPSPPLSSTGDVASDSYNNVYRDTEGLRELGVTHYRFSISWARVLPNGTAGTPNREGLRYYRRLLERLRELGVQPVVTLYHWDLPQRLQDTYGGWANRALADHFRDYAELCFRHFGGQVKYWITIDNPYVVAWHGYATGRLAPGVRGSSRLGYLVAHNLLLAHAKVWHLYNTSFRPTQGGRVSIALSSHWINPRRMTDYNIRECQKSLDFVLGWFAKPIFIDGDYPESMKNNLSSLLPDFTESEKRLIRGTADFFALSFGPTLSFQLLDPNMKFRQLESPNLRQLLSWIDLEYNHPPIFIVENGWFVSGTTKRDDAKYMYYLKKFIMETLKAIRLDGVDVIGYTAWSLMDGFEWHRGYSIRRGLFYVDFLSQDKELLPKSSALFYQKLIEDNGFPPLPENQPLEGTFPCDFAWGVVDNYVQVDTTLSQFTDPNVYLWDVHHSKRLIKVDGVVAKKRKPYCVDFSAIRPQITLLREMRVTHFRFSLDWALILPLGNQTQVNHTVLHFYRCMISELVHANITPVVALWQPAAPHQGLPHALAKHGAWENPHTALAFADYANLCFKELGHWVNLWITMNEPNTRNMTYRAGHHLLRAHALAWHLYDDKFRAAQKGKISIALQADWIEPACPFSQNDKEVAERVLEFDIGWLAEPIFGSGDYPRVMRDWLNQKNNFLLPYFTEDEKKLVRGSFDFLAVSHYTTILVDWEKEDPMKYNDYLEVQEMTDITWLNSPSQVAVVPWGLRKVLNWLRFKYGDLPMYVTANGIDDDPHAEQDSLRIYYIKNYVNEALKAYVLDDINLCGYFAYSLSDRSAPKSGFYRYAANQFEPKPSMKHYRKIIDSNGFLGSGTLGRFCPEEYTVCTECGFFQTRK
modifications: left off: small tags and cut ends
notes: ectodomain of murine Klotho (A35 to K982) purified from HEK293 culture media
For orientation: Kd means the free concentration of one partner at which half of the binding sites on the other are occupied at equilibrium, for simple one-to-one binding. B1: the Kd with FGFR1c was found to be 72 nM.

(Values after patent publication US8889621B2, “Inhibiting binding of FGF23 to the binary FGFR-Klotho complex for the treatment of hypophosphatemia” (New York University, priority 2009, dated 2014).)
